In FireProtDB (doi:10.1021/bi00009a035):

Conditions: Saccharomyces cerevisiae (strain ATCC 204508 / S288c), pH 7.5, 25 °C, GdnHCl, CD, Tris-HCl 20 mM, NaCl 40 mM, reversible: yes (94-100%)

Chain of Cytochrome c isoform 1 K79A, P00044 (P00044 whole entry K79A, canonical isoform): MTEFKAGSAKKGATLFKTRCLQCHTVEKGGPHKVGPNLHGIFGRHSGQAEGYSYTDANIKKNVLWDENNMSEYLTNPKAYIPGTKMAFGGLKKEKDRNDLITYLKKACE
Chain of Cytochrome c isoform 1 K79G, P00044 (P00044 whole entry K79G, canonical isoform): as the sequence (P00044 whole entry K79A, canonical isoform) above, with A79G counted along it
Chain of Cytochrome c isoform 1 K79V, P00044 (P00044 whole entry K79V, canonical isoform): as the sequence (P00044 whole entry K79A, canonical isoform) above, with A79V counted along it
Chain of Cytochrome c isoform 1 K79I, P00044 (P00044 whole entry K79I, canonical isoform): as the sequence (P00044 whole entry K79A, canonical isoform) above, with A79I counted along it
Chain of Cytochrome c isoform 1 K79L, P00044 (P00044 whole entry K79L, canonical isoform): as the sequence (P00044 whole entry K79A, canonical isoform) above, with A79L counted along it
Chain of Cytochrome c isoform 1 K79R, P00044 (P00044 whole entry K79R, canonical isoform): as the sequence (P00044 whole entry K79A, canonical isoform) above, with A79R counted along it
Chain of Cytochrome c isoform 1 wild type, P00044 (P00044 whole entry, canonical isoform): as the sequence (P00044 whole entry K79A, canonical isoform) above, with A79K counted along it

Row | Substance | ddG of mutation (higher = less stable) (structure 1YCC) [kcal/mol] | denaturant m value (structure 1YCC) [kcal/mol/M] | denaturant midpoint (higher = more stable) (structure 1YCC) [M] | unfolding free energy (structure 1YCC) [kcal/mol] | denaturant m value [kcal/mol/M] | denaturant midpoint (higher = more stable) [M] | unfolding free energy [kcal/mol]
1 | Cytochrome c isoform 1 K79A, P00044 | 0.45 | 4.44 | 1.17 | 5.21 |  |  | 
2 | Cytochrome c isoform 1 K79G, P00044 | 0.74 | 4.58 | 1.07 | 4.92 |  |  | 
3 | Cytochrome c isoform 1 K79I, P00044 | 1.19 | 4.29 | 1.04 | 4.47 |  |  | 
4 | Cytochrome c isoform 1 K79L, P00044 | 0.03 | 4.98 | 1.13 | 5.63 |  |  | 
5 | Cytochrome c isoform 1 K79R, P00044 | 0.03 | 5.25 | 1.07 | 5.63 |  |  | 
6 | Cytochrome c isoform 1 K79V, P00044 | 1.38 | 4.01 | 1.07 | 4.28 |  |  | 
7 | Cytochrome c isoform 1 wild type, P00044 |  |  |  |  | 4.87 | 1.16 | 5.66
